The source of these data is patent US20230235054A1 (BIOATLA, published 2023).

Positions count from the first letter of the chain named.

Experiment [1] addresses T1, recombinant human Nectin4 antigen (human, UniProt Q96NY8 32-349).
T1 construct: construct not described
T1 sequence (looked up): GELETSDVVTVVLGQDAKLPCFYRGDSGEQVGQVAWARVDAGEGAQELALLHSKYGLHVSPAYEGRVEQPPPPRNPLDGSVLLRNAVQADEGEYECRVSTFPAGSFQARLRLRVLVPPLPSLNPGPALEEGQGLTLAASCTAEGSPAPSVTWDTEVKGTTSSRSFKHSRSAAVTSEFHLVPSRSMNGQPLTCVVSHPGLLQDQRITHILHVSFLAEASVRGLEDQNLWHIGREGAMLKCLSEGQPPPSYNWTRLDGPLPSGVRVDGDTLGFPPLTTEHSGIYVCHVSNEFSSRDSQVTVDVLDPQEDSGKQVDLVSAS
Briefly: ELISA, coated antigen, PSB pH 7.4. As for the experimental part:
1) Coat ELISA plates with 100 μL of 1 μg/mL recombinant human Nectin4 antigen or cynoNectin4 antigen in carbonate-bicarbonate coating buffer. […] 2) Cover plates with sealing film and incubate overnight at 4° C. [0444] 3) Decant plates and tap out residual liquid on a stack of paper towels. [0445] 4) Wash wells twice by dispensing 200 μL of pH 6.0 or pH 7.4 ELISA incubation buffer to the wells and completely aspirate the contents. [0446] 5) Add 200 μL of pH 6.0 or pH 7.4 ELISA incubation buffer to the wells. Cover with sealing film and place the plate onto a plate shaker set to 50 rpm for 60 minutes at room temperature. [0447] 6) Decant plates and tap out residual liquid on a stack of paper towels. […] 7) Serially dilute test articles in 3-fold dilutions starting at 3000 ng/mL in pH 6.0 or pH 7.4 ELISA incubation buffer. […] 8) Add 100 μL/well of diluted test articles to the plates [0450] 9) Cover with sealing film and place the plates onto a plate shaker set to 50 rpm for 60 minutes at room temperature. [0451] 10) Decant plates and tap out residual liquid on a stack of paper towels. [0452] 11) Wash wells three times by dispensing 200 μL of pH 6.0 or pH 7.4 ELISA wash buffer to the wells and completely aspirate the contents. […] 12) Dilute the HRP secondary antibody at 1:2500 in pH 6.0 or pH 7.4 ELISA incubation buffer. [0454] […]

Experiment [2] has as its target T2, huNectin4-His (human, UniProt Q96NY8 32-349).
T2 construct: Immobilized on the SPR chip; also called humanNectin4; human Nectin4; not shown: His tag
T2 sequence (looked up): T1 sequence (looked up)
The experiment can be described thus: SPR, huNectin4-His immobilized, pH 6.5; pH 6.5. As to the method:
(§1) Binding kinetics of anti-Nectin4 antibodies were measured by surface plasmon resonance using a SPR2/4 instrument (Sierra Sensors, Hamburg, Germany) and flat amine sensor chips. The SPR sensor contained four flow cells (FC1-FC4), each of which was addressed individually or in groups. huNectin4-His was immobilized in FC2, and cynoNectin4-mFc in FC4. No protein was immobilized in FC1 and FC3 which were used as control surfaces for FC2 and FC4, respectively.
(§2) All injections were done at a flow rate of 25 μL/min at 25° C. The sensor surface was activated with 1-ethyl-3-(3-dimethylaminopropyl)-carbodiimide (EDC) and N-hydroxysuccinimide (NHS) (200 mM/50 mM) for 480 seconds. HuNectin4-His (2 μg/mL in 10 mM NaAc, pH4.5) was injected for 480s and the surface was inactivated by injecting 1M ethanolamine-HCl for 480s. CynoNectin4 was immobilized using the same conditions as described for huNectin4-His, except that the cynoNectin4 was diluted into 10 mM NaAc buffer having pH 5.0. The control surface was activated and deactivated using the same conditions, but without injecting protein. PBST buffer (PBS pH 7.4 with 0.05% TWEEN20™) was used as running buffer for the surface preparation. The running solution was switched to PBST with 30 mM sodium bicarbonate with the pH adjusted as indicated in the figures before the analyte injections. The instrument was equilibrated with the running solution for one hour before the first analyte injection.
(§3) The off-rate was measured for 360s. The chip surface was regenerated after each cycle of interaction analysis by injecting 6 μL of 10 mM glycine (pH 2.0). Flow cells 1 and 3 without immobilized protein were used as control surfaces for reference subtraction.

Experiment [3] addresses T2, huNectin4-His. Briefly: SPR, huNectin4-His immobilized, pH 7.4; pH 7.4. As for the experimental part: as §1, §2, §3
A general note: Surface plasmon resonance follows binding to a sensor surface in real time, without labels.

B1: BAP-143-wildtype (antibody, V domains shown)
VH: EVQLVESGGGLVQPGGSLRLSCAASGFTFSSYNMNWVRQAPGKGLEWVSYISSSSSTIYYADSVKGRFTISRDNAKNSLSLQMNSLRDEDTAVYYCARAYYYGMDVWGQGTTVTVSS
VL: DIQMTQSPSSVSASVGDRVTITCRASQGISGWLAWYQQKPGKAPKFLIYAASTLQSGVPSRFSGSGSGTDFTLTISSLQPEDFATYYCQQANSFPPTFGGGTKVEIK
notes: 150 kDa used in SPR; also called BAP143-00-00; benchmark (BM)
Usually EC50 stands for the midpoint of the concentration-response curve. For B1, the EC50 in experiment [1] is 0.0216 µg/mL.

B2: BAP-143-06-24-16 (antibody, V domains shown)
VH: EVQLVQSGAEVKKPGATVKISCKVSGFTFSSYNMNWIRQSPSRGLEWLGYISSSSSTIYYADSVKGRFTISRDNSKNTLYLQMNSLRAEDTAVYYCARAYYYGDDVWGQGTLVTVSS
VL: B1 VL with R24H
notes: Used as a conjugate with a linker payload (CAB ADC)
Take B2: the EC50 in experiment [1] worked out at 0.133 µg/mL.

B3: BAP-143-00-02 (antibody, V domains shown)
VH: B1 VH
VL: B1 VL with F94E
notes: as for B2
In general, Kd refers to the free concentration of one partner at which half of the binding sites on the other are occupied at equilibrium, for simple one-to-one binding. Low readings indicate higher affinity, high ones lower affinity. For orientation: koff means a measure of how fast the partners let go of each other. One may read the kon as the rate constant with which the complex forms. Low values mean slower complex formation, high ones faster complex formation. For B3, in the experiment with huNectin4-His [2], the affinity, expressed as Kd, was 9.31 nM; the koff is 0.00574 s⁻¹; the kon came out at 617000 M⁻¹ s⁻¹. In the experiment with huNectin4-His [3], binding was characterised by a dissociation constant (Kd) of 9.76 nM, the koff was 0.00478 s⁻¹ and the kon was 490000 M⁻¹ s⁻¹.
